Data published in the Immune Epitope Database (IEDB).

Columns and labels:
HLA-A*01:01 = experiment: IEDB peptide-MHC binding, purified MHC/direct/fluorescence; filed as Kd, often an IC50 or EC50 that approximates it; ≥ and ≤ were set here for values at or beyond the usual limits of such assays
HLA-A*02:01 = experiment: as above
HLA-A*24:03 = experiment: as above; conditions: source organism: Camelpox virus M-96
HLA-A*69:01 = experiment: as above
HLA-B*07:02 = experiment: as above
HLA-B*15:01 = experiment: as above; conditions: source organism: Camelpox virus M-96
HLA-B*15:17 = experiment: as above
HLA-B*57:01 = experiment: as above
HLA-B*58:01 = experiment: as above
HLA-C*07:02 = experiment: as above; conditions: source organism: Vaccinia virus WR
HLA-A*02:06 = experiment: IEDB peptide-MHC binding, purified MHC/competitive/fluorescence; filed as Kd, often an IC50 or EC50 that approximates it; ≥ and ≤ were set here for values at or beyond the usual limits of such assays; conditions: source organism: Vaccinia virus WR
HLA-A*11:01 [1] = experiment: as above; conditions: source organism: Vaccinia virus WR
HLA-A*26:02 [2] = experiment: as above; conditions: source organism: Vaccinia virus WR
HLA-A*30:01 = experiment: as above; conditions: source organism: Vaccinia virus WR
HLA-A*31:01 [3] = experiment: as above; conditions: source organism: Vaccinia virus WR
HLA-A*68:02 [4] = experiment: as above; conditions: source organism: Vaccinia virus WR
HLA-B*18:01 [5] = experiment: as above; conditions: source organism: Vaccinia virus WR
HLA-B*39:01 [6] = experiment: as above; conditions: source organism: Vaccinia virus WR
HLA-A*11:01 [7] = experiment: IEDB peptide-MHC binding, purified MHC/direct/fluorescence; filed as Kd, often an IC50 or EC50 that approximates it; ≥ and ≤ were set here for values at or beyond the usual limits of such assays; conditions: source organism: Giardia lamblia ATCC 50803
HLA-A*26:02 [8] = experiment: as above; conditions: source organism: Giardia lamblia ATCC 50803
HLA-A*26:03 = experiment: as above; conditions: source organism: Giardia lamblia ATCC 50803
HLA-A*31:01 [9] = experiment: as above; conditions: source organism: Giardia lamblia ATCC 50803
HLA-A*68:02 [10] = experiment: as above; conditions: source organism: Giardia lamblia ATCC 50803
HLA-B*08:01 = experiment: as above; conditions: source organism: Giardia lamblia ATCC 50803
HLA-B*08:02 = experiment: as above; conditions: source organism: Giardia lamblia ATCC 50803
HLA-B*08:03 = experiment: as above; conditions: source organism: Giardia lamblia ATCC 50803
HLA-B*18:01 [11] = experiment: as above; conditions: source organism: Giardia lamblia ATCC 50803
HLA-B*27:05 = experiment: as above; conditions: source organism: Giardia lamblia ATCC 50803
HLA-B*39:01 [12] = experiment: as above; conditions: source organism: Giardia lamblia ATCC 50803
HLA-B*40:01 = experiment: as above; conditions: source organism: Giardia lamblia ATCC 50803
HLA-B*48:01 = experiment: as above; conditions: source organism: Giardia lamblia ATCC 50803
[13] = source organism: Camelpox virus M-96
[14] = source organism: Giardia lamblia ATCC 50803

Sequence: NYFNRMFHF
- Kd (HLA-A*01:01; [13]): ≥ 20 µM
- Kd (HLA-A*02:01; [13]): ≥ 20 µM
- Kd (HLA-A*24:03): 0.0043 µM
- Kd (HLA-A*69:01; [13]): ≥ 20 µM
- Kd (HLA-B*07:02; [13]): ≥ 20 µM
- Kd (HLA-B*15:01): ≥ 20 µM
- Kd (HLA-B*15:17; [13]): ≥ 20 µM
- Kd (HLA-B*57:01; [13]): ≥ 20 µM
- Kd (HLA-B*58:01; [13]): ≥ 20 µM
- Kd (HLA-C*07:02): 0.003 µM
- Kd (HLA-A*02:06): 3.36 µM
- Kd (HLA-A*11:01 [1]): ≥ 20 µM
- Kd (HLA-A*26:02 [2]): ≥ 20 µM
- Kd (HLA-A*30:01): 3.26 µM
- Kd (HLA-A*31:01 [3]): 2.3 µM
- Kd (HLA-A*68:02 [4]): ≥ 20 µM
- Kd (HLA-B*18:01 [5]): 0.89 µM
- Kd (HLA-B*39:01 [6]): 3 µM

Sequence: RENQVAVVR
- Kd (HLA-A*01:01; [14]): ≥ 20 µM
- Kd (HLA-A*02:01; [14]): ≥ 20 µM
- Kd (HLA-A*11:01 [7]): ≥ 20 µM
- Kd (HLA-A*26:02 [8]): ≥ 20 µM
- Kd (HLA-A*26:03): ≥ 20 µM
- Kd (HLA-A*31:01 [9]): ≥ 20 µM
- Kd (HLA-A*68:02 [10]): ≥ 20 µM
- Kd (HLA-A*69:01; [14]): ≥ 20 µM
- Kd (HLA-B*07:02; [14]): ≥ 20 µM
- Kd (HLA-B*08:01): ≥ 20 µM
- Kd (HLA-B*08:02): ≥ 20 µM
- Kd (HLA-B*08:03): ≥ 20 µM
- Kd (HLA-B*15:17; [14]): ≥ 20 µM
- Kd (HLA-B*18:01 [11]): ≥ 20 µM
- Kd (HLA-B*27:05): ≥ 20 µM
- Kd (HLA-B*39:01 [12]): ≥ 20 µM
- Kd (HLA-B*40:01): ≥ 20 µM
- Kd (HLA-B*48:01): ≥ 20 µM
- Kd (HLA-B*57:01; [14]): ≥ 20 µM
- Kd (HLA-B*58:01; [14]): ≥ 20 µM
